Where no end group is shown, it is not given here. [ ]: non-standard residue; d: D form. Met(O) = CS(=O)CC[C@H](N)C(=O)O

The target of assay [1] is T1, rhesus monkey Y2 receptor (rhesus monkey, UniProt Q9GK74 1-381).
T1 sequence (looked up): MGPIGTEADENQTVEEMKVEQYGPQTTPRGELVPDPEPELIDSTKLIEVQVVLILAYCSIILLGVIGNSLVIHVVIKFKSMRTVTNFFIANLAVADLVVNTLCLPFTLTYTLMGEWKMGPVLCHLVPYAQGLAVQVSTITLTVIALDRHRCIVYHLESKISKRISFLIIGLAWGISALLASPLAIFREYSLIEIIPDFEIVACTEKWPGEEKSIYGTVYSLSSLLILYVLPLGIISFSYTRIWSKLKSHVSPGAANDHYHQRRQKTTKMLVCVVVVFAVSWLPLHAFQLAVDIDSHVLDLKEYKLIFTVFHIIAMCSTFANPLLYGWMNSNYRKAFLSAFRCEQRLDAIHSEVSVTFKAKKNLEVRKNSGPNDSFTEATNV
The assay is described as follows: cell-based or functional assay.

Assay [2] deals with T1, rhesus monkey Y2 receptor. Briefly: competition binding with 125I-PYY on CHO cells stably expressing rhesus monkey Y2. Here is the method: (§1) The stable transfected CHO cells are transferred to 48-well culture plates one day prior assay at a density of 2,500 cells per well aiming at 5-8% binding of the radioactive ligand. […] Binding assays are performed in 0.5 ml of a 50 mM Hepes buffer, pH 7.4, supplemented with 1 mM CaCl2, 5 mM MgCl2, and 0.1% (w/v) bovine serum albumin and 100 μg/ml bacitracin. Non-specific binding is determined as the binding in the presence of 1 μM of unlabeled human PYY. Cells are washed twice in 0.5 ml of ice-cold buffer and 0.5-1 ml of lysis buffer (8 M Urea, 2% NP40 in 3 M acetic acid) is added and the bound radioactivity is counted in a gamma counter. Determinations are made in triplicates. […] IC50 values were calculated using a standard pharmacological data handling software, Prism 3.0 (graphpad Sofware, San Diego, USA). Ki-values are calculated according the Cheng-Prusoff equation (Cheng Y, Prusoff W H., Biochem Pharmacol. 1973): Ki=[IC50/(1+[L]/Kd)], where Ki is the equilibrium inhibitory constant for the cold ligand, Kd is the equilibrium constant for the radiolabeled (hot) ligand and L is the concentration of the radiolabeled ligand used.

The target of assay [3] is T2, rhesus monkey Y1 receptor (rhesus monkey).
T2 construct: whole, on cells; also called rhY1
The assay is described as follows: competition binding on CHO cells expressing rhesus monkey Y1 (125I-PYY), compared with Y2. Here is the method:
as §1
Protocol as for the Y2 affinity assay, except that CHO cells stably expressing rhesus monkey Y1 are used and cells are transferred to culture plates at a density of 23,000 cells per well.

Assay [4] addresses T2, rhesus monkey Y1 receptor. The assay is described as follows: cell-based or functional assay.
The target in assay [5] is rhesus monkey Y4 receptor (rhesus monkey). The assay is described as follows: cell-based or functional assay.
Assay [6] concerns the target T3, rhesus monkey Y4 receptor (rhesus monkey).
T3 construct: whole, on cells; also called rhY4
The assay is described as follows: competition binding on CHO cells expressing rhesus monkey Y4 (125I-PP), compared with Y2. How it is done:
as §1

B1: NPY (Neuropeptide Y), human sequence (peptide)
peptide: not shown
modifications: C-terminally amidated
By Ki is commonly meant a dissociation constant, usually derived from enzyme kinetics or from competition with a known ligand. On to B1, for which the “IP3 EC50 values at Y2” value in assay [1] was 0.6 nM. Also, in assay [2], the Ki is 0.11 nM.

B2: [Lys4,Leu17,Met-sulfoxide30,Gln34]hPP (peptide)
peptide: APLKPVYPGDNATPEQLAQYAADLRRYIN[Met(O)]LTRQRY-NH2
modifications: N-terminus assumed
SMILES: CC[C@H](C)[C@H](NC(=O)[C@H](Cc1ccc(O)cc1)NC(=O)[C@H](CCCNC(=N)N)NC(=O)[C@H](CCCNC(=N)N)NC(=O)[C@H](CC(C)C)NC(=O)[C@H](CC(=O)O)NC(=O)[C@H](C)NC(=O)[C@H](C)NC(=O)[C@H](Cc1ccc(O)cc1)NC(=O)[C@H](CCC(N)=O)NC(=O)[C@H](C)NC(=O)[C@H](CC(C)C)NC(=O)[C@H](CCC(N)=O)NC(=O)[C@H](CCC(=O)O)NC(=O)[C@@H]1CCCN1C(=O)[C@@H](NC(=O)[C@H](C)NC(=O)[C@H](CC(N)=O)NC(=O)[C@H](CC(=O)O)NC(=O)CNC(=O)[C@@H]1CCCN1C(=O)[C@H](Cc1ccc(O)cc1)NC(=O)[C@@H](NC(=O)[C@@H]1CCCN1C(=O)[C@H](CCCCN)NC(=O)[C@H](CC(C)C)NC(=O)[C@@H]1CCCN1C(=O)[C@H](C)N)C(C)C)[C@@H](C)O)C(=O)N[C@@H](CC(N)=O)C(=O)N[C@@H](CCS(C)=O)C(=O)N[C@@H](CC(C)C)C(=O)N[C@H](C(=O)N[C@@H](CCCNC(=N)N)C(=O)N[C@@H](CCC(N)=O)C(=O)N[C@@H](CCCNC(=N)N)C(=O)N[C@@H](Cc1ccc(O)cc1)C(N)=O)[C@@H](C)O
notes: Human PP with Lys at 4, Leu at 17, oxidised Met at 30 and Gln at 34; also called [Lys4, Leu17, Met(O)30, Gln34]-PP; [Lys4,Leu17,oxidised Met30,Gln34]hPP
With B2, the “IP3 EC50 values at Y2” value in assay [1] turned out to be 0.5 nM. In assay [2], this molecule came in with an inhibitory constant (Ki) of 0.06 nM. Also, the “fold selectivity (affinity at Y2 against Y1)” value in assay [3] is not below 100 fold. For the same molecule, the “fold selectivity in the potency assay (Y2 against Y1)” value (“fold selectivity … (Y2 against Y1)” for short) in assay [4] is not below 100 fold. The “fold selectivity in the potency assay (Y2 against Y4)” value (“fold selectivity … (Y2 against Y4)” for short) in assay [5] is not below 20 fold. For the same molecule, the “fold selectivity (affinity at Y2 against Y4)” value in assay [6] was not below 20 fold.

B3: [Lys4,Leu17,Ser30,Gln34]hPP (peptide)
peptide: APLKPVYPGDNATPEQLAQYAADLRRYINSLTRQRY-NH2
notes: also called [Lys4, Leu17, Ser30, Gln34]-PP; peptide (i)
As for B3, the “IP3 EC50 values at Y2” value in assay [1] worked out at 0.67 nM. In addition, the affinity in assay [2] corresponds to a Ki of 0.51 nM. Moreover, the “fold selectivity (affinity at Y2 against Y1)” value in assay [3] is not below 100 fold. The “fold selectivity … (Y2 against Y1)” value in assay [4] is not below 100 fold. Moreover, the “fold selectivity … (Y2 against Y4)” value in assay [5] was not below 20 fold. In addition, the “fold selectivity (affinity at Y2 against Y4)” value in assay [6] is not below 20 fold.

B4: [Lys4,Leu17,Thr30,Gln34]hPP (peptide)
peptide: APLKPVYPGDNATPEQLAQYAADLRRYINTLTRQRY-NH2
notes: Human PP with Lys at 4, Leu at 17, Thr at 30 and Gln at 34; also called [Lys4, Leu17, Thr30, Gln34]-PP; peptide (ii)
As for B4, in assay [1], the “IP3 EC50 values at Y2” value was determined as 0.71 nM. In addition, the inhibition constant (Ki) in assay [2] turned out to be 0.47 nM. For the same molecule, in assay [3], the “fold selectivity (affinity at Y2 against Y1)” value was not below 100 fold. Also, the “fold selectivity … (Y2 against Y1)” value in assay [4] was not below 100 fold. Moreover, the “fold selectivity … (Y2 against Y4)” value in assay [5] is not below 20 fold. For the same molecule, the “fold selectivity (affinity at Y2 against Y4)” value in assay [6] was not below 20 fold.
Turning to APLEPVYPGDNATPEQMAQYAADLRRYINMLTRPRY-NH2 [PP (Pancreatic Polypeptide), human sequence], the “IP3 EC50 values at Y2 (nM)” value in assay [1] is more than 1000 nM.

B5: PYY (Peptide YY), human sequence (peptide)
peptide: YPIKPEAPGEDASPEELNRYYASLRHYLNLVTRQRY
modifications: C-terminally amidated
notes: also called PYY1-36; human PYY
In the case of B5, the “IP3 EC50 values at Y2” value in assay [1] worked out at 0.18 nM. Moreover, the Ki in assay [2] was determined as 0.09 nM.

The values are drawn from US20080255046A1 (7TM PHARMA A S, published 2008).
